Results as given in paper PMC10973816.

How the values were obtained:
[1] = EGFP in TRPM1-positive OPL puncta, electroporated mouse retina; details: glycan lost; control: wild type mGluR6-EGFP
[2] = Non-permeabilised mAb-1438 immunolabelling, HEK, untagged; details: glycan lost; control: wild type
[3] = Permeabilised mAb-1438 immunolabelling, HEK, untagged; details: glycan lost; control: wild type
[4] = Total EGFP fluorescence, HEK; details: glycan lost; control: wild type mGluR6-EGFP

B1: mGluR6 (metabotropic glutamate receptor 6): N290Q (protein)
parent chain: MGRLRVLLLWLAWWLSQAGIAHGAGSVRLAGGLTLGGLFPVHARGAAGRACGTLKKEQGVHRLEAMLYALDRINADPELLPGVRLGARLLDTCSRDTYALEQALSFVQALIRGRGDGEEASVRCPGGVPPLRAAPPERVVAVVGASASSVSIMVANVLRLFAIPQISYASTAPELSDSTRYDFFSRVVPPDSYQAQAMVDIVRALGWNYVSTLASEGNYGESGVEAFVQISREAGGVCIAQSIKIPREPKPGEFHKVIRRLMETPNARGIIIFANEDDIRRVLEATRQANLTGHFLWVGSDSWGSKISPILNLEEEAVGAITILPKRASIDGFDQYFMTRSLENNRRNIWFAEFWEENFNCKLTSSGGQSDDSTRKCTGEERIGQDSTYEQEGKVQFVIDAVYAIAHALHSMHQALCPGHTGLCPAMEPTDGRTLLHYIRAVRFNGSAGTPVMFNENGDAPGRYDIFQYQATNGSASSGGYQAVGQWAEALRLDMEALQWSGDPHEVPPSQCSLPCGPGERKKMVKGVPCCWHCEACDGYRFQVDEFTCEACPGHMRPTPNHTGCRPTPVVRLTWSSPWAALPLLLAVLGIMATTTIIATFMRHNDTPIVRASGRELSYVLLTGIFLIYAITFLMVAEPCAAVCASRRLLLGLGTTLSYSALLTKTNRIYRIFEQGKRSVTPPPFISPTSQLVITFGLTSLQVVGVIAWLGAQPPHSVIDYEEQRTVDPEQARGVLKCDMSDLSLIGCLGYSLLLMVTCTVYAIKARGVPETFNEAKPIGFTMYTTCIIWLAFVPIFFGTAQSAEKIYIQTTTLTVSLSLSASVSLGMLYVPKTYVILFHPEQNVQKRKRSLKKTSTMAAPPKSENSEDAK
Question: For B1, which localisation_or_trafficking [1] is on record?
Answer: no change

Question: What about the localisation_or_trafficking [2] of the same protein?
Answer: no change

B2: mGluR6 (metabotropic glutamate receptor 6): triple mutant (only N473 left) (protein)
parent chain: MGRLRVLLLWLAWWLSQAGIAHGAGSVRLAGGLTLGGLFPVHARGAAGRACGTLKKEQGVHRLEAMLYALDRINADPELLPGVRLGARLLDTCSRDTYALEQALSFVQALIRGRGDGEEASVRCPGGVPPLRAAPPERVVAVVGASASSVSIMVANVLRLFAIPQISYASTAPELSDSTRYDFFSRVVPPDSYQAQAMVDIVRALGWNYVSTLASEGNYGESGVEAFVQISREAGGVCIAQSIKIPREPKPGEFHKVIRRLMETPNARGIIIFANEDDIRRVLEATRQANLTGHFLWVGSDSWGSKISPILNLEEEAVGAITILPKRASIDGFDQYFMTRSLENNRRNIWFAEFWEENFNCKLTSSGGQSDDSTRKCTGEERIGQDSTYEQEGKVQFVIDAVYAIAHALHSMHQALCPGHTGLCPAMEPTDGRTLLHYIRAVRFNGSAGTPVMFNENGDAPGRYDIFQYQATNGSASSGGYQAVGQWAEALRLDMEALQWSGDPHEVPPSQCSLPCGPGERKKMVKGVPCCWHCEACDGYRFQVDEFTCEACPGHMRPTPNHTGCRPTPVVRLTWSSPWAALPLLLAVLGIMATTTIIATFMRHNDTPIVRASGRELSYVLLTGIFLIYAITFLMVAEPCAAVCASRRLLLGLGTTLSYSALLTKTNRIYRIFEQGKRSVTPPPFISPTSQLVITFGLTSLQVVGVIAWLGAQPPHSVIDYEEQRTVDPEQARGVLKCDMSDLSLIGCLGYSLLLMVTCTVYAIKARGVPETFNEAKPIGFTMYTTCIIWLAFVPIFFGTAQSAEKIYIQTTTLTVSLSLSASVSLGMLYVPKTYVILFHPEQNVQKRKRSLKKTSTMAAPPKSENSEDAK
Question: Which localisation_or_trafficking [2] does the source give for B2 here?
Answer: decreases

Question: And the expression_or_secretion [3]?
Answer: decreases

Question: And the expression_or_secretion [4]?
Answer: decreases

B3: mGluR6 (metabotropic glutamate receptor 6): triple mutant (only N290 left) (protein)
parent chain: MGRLRVLLLWLAWWLSQAGIAHGAGSVRLAGGLTLGGLFPVHARGAAGRACGTLKKEQGVHRLEAMLYALDRINADPELLPGVRLGARLLDTCSRDTYALEQALSFVQALIRGRGDGEEASVRCPGGVPPLRAAPPERVVAVVGASASSVSIMVANVLRLFAIPQISYASTAPELSDSTRYDFFSRVVPPDSYQAQAMVDIVRALGWNYVSTLASEGNYGESGVEAFVQISREAGGVCIAQSIKIPREPKPGEFHKVIRRLMETPNARGIIIFANEDDIRRVLEATRQANLTGHFLWVGSDSWGSKISPILNLEEEAVGAITILPKRASIDGFDQYFMTRSLENNRRNIWFAEFWEENFNCKLTSSGGQSDDSTRKCTGEERIGQDSTYEQEGKVQFVIDAVYAIAHALHSMHQALCPGHTGLCPAMEPTDGRTLLHYIRAVRFNGSAGTPVMFNENGDAPGRYDIFQYQATNGSASSGGYQAVGQWAEALRLDMEALQWSGDPHEVPPSQCSLPCGPGERKKMVKGVPCCWHCEACDGYRFQVDEFTCEACPGHMRPTPNHTGCRPTPVVRLTWSSPWAALPLLLAVLGIMATTTIIATFMRHNDTPIVRASGRELSYVLLTGIFLIYAITFLMVAEPCAAVCASRRLLLGLGTTLSYSALLTKTNRIYRIFEQGKRSVTPPPFISPTSQLVITFGLTSLQVVGVIAWLGAQPPHSVIDYEEQRTVDPEQARGVLKCDMSDLSLIGCLGYSLLLMVTCTVYAIKARGVPETFNEAKPIGFTMYTTCIIWLAFVPIFFGTAQSAEKIYIQTTTLTVSLSLSASVSLGMLYVPKTYVILFHPEQNVQKRKRSLKKTSTMAAPPKSENSEDAK
Question: Which results are given for B3?
Answer: localisation_or_trafficking [2]: decreases; expression_or_secretion [3]: decreases; expression_or_secretion [4]: decreases

B4: mGluR6 (metabotropic glutamate receptor 6): N473Q (protein)
parent chain: MGRLRVLLLWLAWWLSQAGIAHGAGSVRLAGGLTLGGLFPVHARGAAGRACGTLKKEQGVHRLEAMLYALDRINADPELLPGVRLGARLLDTCSRDTYALEQALSFVQALIRGRGDGEEASVRCPGGVPPLRAAPPERVVAVVGASASSVSIMVANVLRLFAIPQISYASTAPELSDSTRYDFFSRVVPPDSYQAQAMVDIVRALGWNYVSTLASEGNYGESGVEAFVQISREAGGVCIAQSIKIPREPKPGEFHKVIRRLMETPNARGIIIFANEDDIRRVLEATRQANLTGHFLWVGSDSWGSKISPILNLEEEAVGAITILPKRASIDGFDQYFMTRSLENNRRNIWFAEFWEENFNCKLTSSGGQSDDSTRKCTGEERIGQDSTYEQEGKVQFVIDAVYAIAHALHSMHQALCPGHTGLCPAMEPTDGRTLLHYIRAVRFNGSAGTPVMFNENGDAPGRYDIFQYQATNGSASSGGYQAVGQWAEALRLDMEALQWSGDPHEVPPSQCSLPCGPGERKKMVKGVPCCWHCEACDGYRFQVDEFTCEACPGHMRPTPNHTGCRPTPVVRLTWSSPWAALPLLLAVLGIMATTTIIATFMRHNDTPIVRASGRELSYVLLTGIFLIYAITFLMVAEPCAAVCASRRLLLGLGTTLSYSALLTKTNRIYRIFEQGKRSVTPPPFISPTSQLVITFGLTSLQVVGVIAWLGAQPPHSVIDYEEQRTVDPEQARGVLKCDMSDLSLIGCLGYSLLLMVTCTVYAIKARGVPETFNEAKPIGFTMYTTCIIWLAFVPIFFGTAQSAEKIYIQTTTLTVSLSLSASVSLGMLYVPKTYVILFHPEQNVQKRKRSLKKTSTMAAPPKSENSEDAK
Question: What does the source list for B4?
Answer: localisation_or_trafficking [1]: no change; localisation_or_trafficking [2]: decreases

B5: mGluR6 (metabotropic glutamate receptor 6): 3Q!561 (protein)
parent chain: MGRLRVLLLWLAWWLSQAGIAHGAGSVRLAGGLTLGGLFPVHARGAAGRACGTLKKEQGVHRLEAMLYALDRINADPELLPGVRLGARLLDTCSRDTYALEQALSFVQALIRGRGDGEEASVRCPGGVPPLRAAPPERVVAVVGASASSVSIMVANVLRLFAIPQISYASTAPELSDSTRYDFFSRVVPPDSYQAQAMVDIVRALGWNYVSTLASEGNYGESGVEAFVQISREAGGVCIAQSIKIPREPKPGEFHKVIRRLMETPNARGIIIFANEDDIRRVLEATRQANLTGHFLWVGSDSWGSKISPILNLEEEAVGAITILPKRASIDGFDQYFMTRSLENNRRNIWFAEFWEENFNCKLTSSGGQSDDSTRKCTGEERIGQDSTYEQEGKVQFVIDAVYAIAHALHSMHQALCPGHTGLCPAMEPTDGRTLLHYIRAVRFNGSAGTPVMFNENGDAPGRYDIFQYQATNGSASSGGYQAVGQWAEALRLDMEALQWSGDPHEVPPSQCSLPCGPGERKKMVKGVPCCWHCEACDGYRFQVDEFTCEACPGHMRPTPNHTGCRPTPVVRLTWSSPWAALPLLLAVLGIMATTTIIATFMRHNDTPIVRASGRELSYVLLTGIFLIYAITFLMVAEPCAAVCASRRLLLGLGTTLSYSALLTKTNRIYRIFEQGKRSVTPPPFISPTSQLVITFGLTSLQVVGVIAWLGAQPPHSVIDYEEQRTVDPEQARGVLKCDMSDLSLIGCLGYSLLLMVTCTVYAIKARGVPETFNEAKPIGFTMYTTCIIWLAFVPIFFGTAQSAEKIYIQTTTLTVSLSLSASVSLGMLYVPKTYVILFHPEQNVQKRKRSLKKTSTMAAPPKSENSEDAK
Question: With B5 as the protein, how does the localisation_or_trafficking [1] read?
Answer: abolishes

Question: And the localisation_or_trafficking [2]?
Answer: decreases

Question: And the expression_or_secretion [3]?
Answer: decreases

Question: And the expression_or_secretion [4]?
Answer: decreases, 3Q!561 had the highest expression among the triple mutants

B6: mGluR6 (metabotropic glutamate receptor 6): 3Q!445 (protein)
parent chain: MGRLRVLLLWLAWWLSQAGIAHGAGSVRLAGGLTLGGLFPVHARGAAGRACGTLKKEQGVHRLEAMLYALDRINADPELLPGVRLGARLLDTCSRDTYALEQALSFVQALIRGRGDGEEASVRCPGGVPPLRAAPPERVVAVVGASASSVSIMVANVLRLFAIPQISYASTAPELSDSTRYDFFSRVVPPDSYQAQAMVDIVRALGWNYVSTLASEGNYGESGVEAFVQISREAGGVCIAQSIKIPREPKPGEFHKVIRRLMETPNARGIIIFANEDDIRRVLEATRQANLTGHFLWVGSDSWGSKISPILNLEEEAVGAITILPKRASIDGFDQYFMTRSLENNRRNIWFAEFWEENFNCKLTSSGGQSDDSTRKCTGEERIGQDSTYEQEGKVQFVIDAVYAIAHALHSMHQALCPGHTGLCPAMEPTDGRTLLHYIRAVRFNGSAGTPVMFNENGDAPGRYDIFQYQATNGSASSGGYQAVGQWAEALRLDMEALQWSGDPHEVPPSQCSLPCGPGERKKMVKGVPCCWHCEACDGYRFQVDEFTCEACPGHMRPTPNHTGCRPTPVVRLTWSSPWAALPLLLAVLGIMATTTIIATFMRHNDTPIVRASGRELSYVLLTGIFLIYAITFLMVAEPCAAVCASRRLLLGLGTTLSYSALLTKTNRIYRIFEQGKRSVTPPPFISPTSQLVITFGLTSLQVVGVIAWLGAQPPHSVIDYEEQRTVDPEQARGVLKCDMSDLSLIGCLGYSLLLMVTCTVYAIKARGVPETFNEAKPIGFTMYTTCIIWLAFVPIFFGTAQSAEKIYIQTTTLTVSLSLSASVSLGMLYVPKTYVILFHPEQNVQKRKRSLKKTSTMAAPPKSENSEDAK
Question: For B6, which localisation_or_trafficking [1] is on record?
Answer: no change

Question: And the localisation_or_trafficking [2]?
Answer: decreases

Question: What about the expression_or_secretion [3] of the same protein?
Answer: decreases

Question: What about the expression_or_secretion [4] of the same protein?
Answer: decreases
